Measured values from patent publication US20030220243A1 (Eli Lilly, published 2003).
Where a chain is given by its changes, count along the chain named. Ends that are not written are not given here.

B1: Val^8-Lys^20-GLP-1(7-37)OH (peptide)
peptide: HVEGTFTSDVSSYKEGQAAKEFIAWLVKGRG
B2: Gln^22-GLP-1(7-37)OH (peptide)
peptide: B1 peptide with V2A, K14L, G16Q
B3: Val^8-Ala^22-GLP-1(7-37)OH (peptide)
peptide: B1 peptide with K14L, G16A
B4: Val^8-Ser^22-GLP-1(7-37)OH (peptide)
peptide: B1 peptide with K14L, G16S
B5: Val^8-Asp^22-GLP-1(7-37)OH (peptide)
peptide: B1 peptide with K14L, G16D
B6: Val^8-Lys^22-GLP-1(7-37)OH (peptide)
peptide: B1 peptide with K14L, G16K
B7: Val^8-Pro^22-GLP-1(7-37)OH (peptide)
peptide: B1 peptide with K14L, G16P
B8: Val^8-His^22-GLP-1(7-37)OH (peptide)
peptide: B1 peptide with K14L, G16H
B9: Val^8-Lys^22-GLP-1(7-36)NH2 (peptide)
peptide: HVEGTFTSDVSSYLEKQAAKEFIAWLVKGR-NH2
B10: Val^8-Glu^22-GLP-1(7-36)NH2 (peptide)
peptide: HVEGTFTSDVSSYLEEQAAKEFIAWLVKGR-NH2
B11: Val^8-Glu^23-GLP-1(7-36)OH (peptide)
peptide: HVEGTFTSDVSSYLEGEAAKEFIAWLVKGR
B12: Val^8-Lys^23-GLP-1(7-37)OH (peptide)
peptide: B1 peptide with K14L, Q17K
B13: Val^8-His^24-GLP-1(7-37)OH (peptide)
peptide: B1 peptide with K14L, A18H
B14: Val^8-Lys^24-GLP-1(7-37)OH (peptide)
peptide: B1 peptide with K14L, A18K
B15: Ala^8-His^26-GLP-1(7-37)OH (peptide)
peptide: B1 peptide with V2A, K14L, K20H
B16: Ala^8-Glu^26-GLP-1(7-37)OH (peptide)
peptide: B1 peptide with V2A, K14L, K20E
B17: Val^8-His^27-GLP-1(7-37)OH (peptide)
peptide: B1 peptide with K14L, E21H
B18: Gly^8-His^11-GLP-1(7-37)OH (peptide)
peptide: B1 peptide with V2G, T5H, K14L
B19: Gly^8-Glu^30-GLP-1(7-37)OH (peptide)
peptide: B1 peptide with V2G, K14L, A24E
B20: Val^8-Glu^30-GLP-1(7-37)OH (peptide)
peptide: B1 peptide with K14L, A24E
B21: Val^8-Asp^30-GLP-1(7-37)OH (peptide)
peptide: B1 peptide with K14L, A24D
B22: Val^8-Ser^30-GLP-1(7-37)OH (peptide)
peptide: B1 peptide with K14L, A24S
B23: Val^8-His^30-GLP-1(7-37)OH (peptide)
peptide: B1 peptide with K14L, A24H
B24: Val^8-Glu^33-GLP-1(7-37)OH (peptide)
peptide: B1 peptide with K14L, V27E
B25: Val^8-Ala^33-GLP-1(7-37)OH (peptide)
peptide: B1 peptide with K14L, V27A
B26: Val^8-Gly^33-GLP-1(7-37)OH (peptide)
peptide: B1 peptide with K14L, V27G
B27: Val^8-Glu^34-GLP-1(7-37)OH (peptide)
peptide: B1 peptide with K14L, K28E
B28: Val^8-Pro^35-GLP-1(7-37)OH (peptide)
peptide: B1 peptide with K14L, G29P
B29: Val^8-Ala^11-GLP-1(7-37)OH (peptide)
peptide: B1 peptide with T5A, K14L
B30: Val^8-His^35-GLP-1(7-37)OH (peptide)
peptide: B1 peptide with K14L, G29H
B31: Val^8-Glu^35-GLP-1(7-37)OH (peptide)
peptide: B1 peptide with K14L, G29E
B32: Val^8-Glu^36-GLP-1(7-37)OH (peptide)
peptide: B1 peptide with K14L, R30E
B33: Val^8-His^36-GLP-1(7-37)OH (peptide)
peptide: B1 peptide with K14L, R30H
B34: Val^8-His^37-GLP-1(7-37)OH (peptide)
peptide: B1 peptide with K14L, G31H
B35: Val^8-Leu^16-Glu^26-GLP-1(7-37)OH (peptide)
peptide: B1 peptide with V10L, K14L, K20E
B36: Val^8-Lys^22-Glu^30-GLP-1(7-37)OH (peptide)
peptide: B1 peptide with K14L, G16K, A24E
B37: Val^8-Lys^22-Glu^23-GLP-1(7-37)OH (peptide)
peptide: HVEGTFTSDVSSYLEKEAAKEFIAWLVKGRH
B38: Val^8-Lys^11-GLP-1(7-37)OH (peptide)
peptide: B1 peptide with T5K, K14L
B39: Val^8-Glu^22-Lys^23-GLP-1(7-37)OH (peptide)
peptide: B1 peptide with K14L, G16E, Q17K
B40: Val^8-Lys^33-Val^34-GLP-1(7-37)OH (peptide)
peptide: B1 peptide with K14L, V27K, K28V
B41: Val^8-Lys^33-Asn^34-GLP-1(7-37)OH (peptide)
peptide: B1 peptide with K14L, V27K, K28N
B42: Val^8-Gly^34-Lys^35-GLP-1(7-37)OH (peptide)
peptide: B1 peptide with K14L, K28G, G29K
B43: Val^8-Gly^36-Pro^37-GLP-1(7-37)NH2 (peptide)
peptide: HVEGTFTSDVSSYLEGQAAKEFIAWLVKGGP-NH2
B44: Val^8-Tyr^12-GLP-1(7-37)OH (peptide)
peptide: B1 peptide with F6Y, K14L
B45: Val^8-Glu^16-GLP-1(7-37)OH (peptide)
peptide: B1 peptide with V10E, K14L
B46: Val^8-Ala^16-GLP-1(7-37)OH (peptide)
peptide: B1 peptide with V10A, K14L
B47: Val^8-Tyr^16-GLP-1(7-37)OH (peptide)
peptide: B1 peptide with V10Y, K14L

target: GLP-1 receptor; experiment: cell-based or functional assay

| Binder | GLP-1 Receptor Activation |
| --- | --- |
| B1 | 0.33 relative to GLP-1(7-37)OH |
| B2 | 0.42 relative to GLP-1(7-37)OH |
| B3 | 0.56 relative to GLP-1(7-37)OH |
| B4 | 0.5 relative to GLP-1(7-37)OH |
| B5 | 0.4 relative to GLP-1(7-37)OH |
| B6 | 0.58 relative to GLP-1(7-37)OH |
| B7 | 0.01 relative to GLP-1(7-37)OH |
| B8 | 0.14 relative to GLP-1(7-37)OH |
| B9 | 0.53 relative to GLP-1(7-37)OH |
| B10 | 1 relative to GLP-1(7-37)OH |
| B11 | 0.28 relative to GLP-1(7-37)OH |
| B12 | 0.18 relative to GLP-1(7-37)OH |
| B13 | 0.007 relative to GLP-1(7-37)OH |
| B14 | 0.02 relative to GLP-1(7-37)OH |
| B15 | 0.8 relative to GLP-1(7-37)OH |
| B16 | 0.7 relative to GLP-1(7-37)OH |
| B17 | 0.37 relative to GLP-1(7-37)OH |
| B18 | 0.282 relative to GLP-1(7-37)OH |
| B19 | 0.29 relative to GLP-1(7-37)OH |
| B20 | 0.29 relative to GLP-1(7-37)OH |
| B21 | 0.15 relative to GLP-1(7-37)OH |
| B22 | 0.19 relative to GLP-1(7-37)OH |
| B23 | 0.19 relative to GLP-1(7-37)OH |
| B24 | 0.039 relative to GLP-1(7-37)OH |

| Binder | GLP-1 Receptor Activation |
| --- | --- |
| B25 | 0.1 relative to GLP-1(7-37)OH |
| B26 | 0.01 relative to GLP-1(7-37)OH |
| B27 | 0.17 relative to GLP-1(7-37)OH |
| B28 | 0.094 relative to GLP-1(7-37)OH |
| B29 | 0.021 relative to GLP-1(7-37)OH |
| B30 | 0.41 relative to GLP-1(7-37)OH |
| B31 | 0.15 relative to GLP-1(7-37)OH |
| B32 | 0.11 relative to GLP-1(7-37)OH |
| B33 | 0.22 relative to GLP-1(7-37)OH |
| B34 | 0.33 relative to GLP-1(7-37)OH |
| B35 | 0.23 relative to GLP-1(7-37)OH |
| B36 | 0.37 relative to GLP-1(7-37)OH |
| B37 | 0.35 relative to GLP-1(7-37)OH |
| B38 | 0.001 relative to GLP-1(7-37)OH |
| B39 | 1.43 relative to GLP-1(7-37)OH |
| B40 | 0.08 relative to GLP-1(7-37)OH |
| B41 | 0.09 relative to GLP-1(7-37)OH |
| B42 | 0.34 relative to GLP-1(7-37)OH |
| B43 | 0.53 relative to GLP-1(7-37)OH |
| B44 | 0.81 relative to GLP-1(7-37)OH |
| B45 | 0.047 relative to GLP-1(7-37)OH |
| B46 | 0.112 relative to GLP-1(7-37)OH |
| B47 | 1.18 relative to GLP-1(7-37)OH |
